The text below walks through data of patent US7358040B2, “MRE 11: modulation of cellular proliferation” (Rigel Pharmaceuticals, Incorporated, priority 2001, dated 2008).

Common to all, as to format: cell-based
Test [1] deals with A549 tumor cells. The test is described as follows: bleomycin chemosensitization study in A549 tumor cells. The text has this: (§1) As described below, the present inventors identified MRE11 in a yeast two hybrid assay, using PCNA as bait. Another molecule, NBS1, was identified in the two-hybrid assay as a PCNA-binding protein, as NBS1 binds the mammalian homolog of yeast RAD50, which also binds to MRE11 (see, e.g., Petrini, Am. J Hum. Genet. 64:1264-1269 (1999); Kim et al., J. Biol. Chem. 271:29255-29264 (1996); see also GenBank Accession number XP—034864 for a protein sequence of human RAD50 and Accession number XM—034864 for a nucleic acid sequence of human RAD50; see also Example 1)). NBS1 therefore bound to the RAD50/MRE11 complex, as well as to PCNA. As shown in FIGS. 8-15, inhibition of MRE11 or overexpression of an MRE11 mutant is antiproliferative in tumor cells and HeLa cells but not in normal cells (using, e.g., GFP positivity assays, cell tracker assays, and antisense assays).

Test [2] has as its system normal cells. Description: cell tracker assay in normal cells.
From the text: as §1
(§2) In another embodiment, MRE11 protein is expressed in a cell, and functional, e.g., physical and chemical or phenotypic, changes are assayed to identify MRE11 and modulators of cellular proliferation, e.g., tumor cell proliferation. Cells expressing MRE11 proteins can also be used in binding assays and enzymatic assays. Any suitable functional effect can be measured, as described herein. […]

The subject of test [3] is normal cells. Description: overexpression proliferation assay in normal cells.
From the text: as §1, §2

Test [4] concerns HeLa cells. Description: overexpression / GFP positivity proliferation assay in HeLa cells.
From the text: as §1, §2

Test [5] concerns A549 tumor cells. Description: cell tracker assay in A549 tumor cells.
From the text: as §1, §2

In test [6] the test system is A549 tumor cells. The test is described as follows: overexpression / GFP positivity proliferation assay in A549 tumor cells.
From the text: as §1, §2

Test [7] relates to HeLa cells. The test is described as follows: bleomycin chemosensitization study in HeLa cells.
From the text: as §1

The test system of another test is normal HMEC cells. The test is described as follows: bleomycin chemosensitization study in normal HMEC cells.
From the text: as §1

B1: MRE11 wild type: wild-type human MRE11 protein (SEQ ID NO:2) overexpressed in cells (protein, listed as Homo sapiens)
chain: MSTADALDDENTFKILVATDIHLGFMEKDAVRGNDTFVTLDEILRLAQENEVDFILLGGDLFHENKPSRKTLHTCLELLRKYCMGDRPVQFEILSDQSVNFGFSKFPWVNYQDGNLNISIPVFSIHGNHDDPTGADALCALDILSCAGFVNHFGRSMSVEKIDISPVLLQKGSTKIALYGLGSIPDERLYRMFVNKKVTMLRPKEDENSWFNLFVIHQNRSKHGSTNFIPEQFLDDFIDLVIWGHEHECKIAPTKNEQQLFYISQPGSSVVTSLSPGEAVKKHVGLLRIKGRKMNMHKIPLHTVRQFFMEDIVLANHPDIFNPDNPKVTQAIQSFCLEKIEEMLENAERERLGNSHQPEKPLVRLRVDYSGGFEPFSVLRFSQKFVDRVANPKDIIHFFRHREQKEKTGEEINFGKLITKPSEGTTLRVEDLVKQYFQTAEKNVQLSLLTERGMGEAVQEFVDKEEKDAIEELVKYQLEKTQRFLKERHIDALEDKIDEEVRRFRETRQKNTNEEDDEVREAMTRARALRSQSEESASAFSADDLMSIDLAEQMANDSDDSISAATNKGRGRGRGRRGGRGQNSASRGGSQRGRADTGLETSTRSRNSKTAVSASRNMSIIDAFKSTRQQPSRNVTTKNYSEVIEVDESDVEEDIFPTTSKTDQRWSSTSSSKIMSQSQVSKGVDFESSEDDDDDPFMNTSSLRRNRR
modifications: human MRE11 meiotic recombination 11 homolog A
On to B1, for which, in the test on A549 tumor cells [1] (tumor cells expressing the protein, 48 hours after bleomycin treatment), the “selective sensitization after bleomycin treatment” value is “no selective sensitization”. The “antiproliferative activity, cell tracker assay” value in the test on normal cells [2] is on record as “no antiproliferative activity”. The “antiproliferative activity on overexpression” value in the test with normal cells [3] is “not antiproliferative”.

B2: GFP-fused MRE11 H129N mutant: GFP-fused dominant negative H129N mutant of MRE11 nuclease, overexpressed in cells for target validation (protein, UniProt P49959 2-708, looked up, variant H129N)
Double-strand break repair …: STADALDDENTFKILVATDIHLGFMEKDAVRGNDTFVTLDEILRLAQENEVDFILLGGDLFHENKPSRKTLHTCLELLRKYCMGDRPVQFEILSDQSVNFGFSKFPWVNYQDGNLNISIPVFSIHGNNDDPTGADALCALDILSCAGFVNHFGRSMSVEKIDISPVLLQKGSTKIALYGLGSIPDERLYRMFVNKKVTMLRPKEDENSWFNLFVIHQNRSKHGSTNFIPEQFLDDFIDLVIWGHEHECKIAPTKNEQQLFYISQPGSSVVTSLSPGEAVKKHVGLLRIKGRKMNMHKIPLHTVRQFFMEDIVLANHPDIFNPDNPKVTQAIQSFCLEKIEEMLENAERERLGNSHQPEKPLVRLRVDYSGGFEPFSVLRFSQKFVDRVANPKDIIHFFRHREQKEKTGEEINFGKLITKPSEGTTLRVEDLVKQYFQTAEKNVQLSLLTERGMGEAVQEFVDKEEKDAIEELVKYQLEKTQRFLKERHIDALEDKIDEEVRRFRETRQKNTNEEDDEVREAMTRARALRSQSEESASAFSADDLMSIDLAEQMANDSDDSISAATNKGRGRGRGRRGGRGQNSASRGGSQRGRADTGLETSTRSRNSKTAVSASRNMSIIDAFKSTRQQPSRNVTTKNYSEVIEVDESDVEEDIFPTTSKTDQRWSSTSSSKIMSQSQVSKGVDFESSEDDDDDPFMNTSSLRRNRR
modifications: GFP fusion
notes: GFP-fused dominant negative H129N mutant of MRE11 nuclease, overexpressed in cells for target validation
In the case of B2, the “antiproliferative activity on overexpression” value with HeLa cells [4] and in the test with A549 tumor cells [6] was “antiproliferative” in each case. Besides, the “antiproliferative activity, cell tracker assay” value in the test with A549 tumor cells [5] is reported as “antiproliferative”.

B3: MRE11 H129N mutant: MRE11 H129N mutant expressed using IRES GFP (not fused) (protein, UniProt P49959 2-708, looked up, variant H129N)
Double-strand break repair …: STADALDDENTFKILVATDIHLGFMEKDAVRGNDTFVTLDEILRLAQENEVDFILLGGDLFHENKPSRKTLHTCLELLRKYCMGDRPVQFEILSDQSVNFGFSKFPWVNYQDGNLNISIPVFSIHGNNDDPTGADALCALDILSCAGFVNHFGRSMSVEKIDISPVLLQKGSTKIALYGLGSIPDERLYRMFVNKKVTMLRPKEDENSWFNLFVIHQNRSKHGSTNFIPEQFLDDFIDLVIWGHEHECKIAPTKNEQQLFYISQPGSSVVTSLSPGEAVKKHVGLLRIKGRKMNMHKIPLHTVRQFFMEDIVLANHPDIFNPDNPKVTQAIQSFCLEKIEEMLENAERERLGNSHQPEKPLVRLRVDYSGGFEPFSVLRFSQKFVDRVANPKDIIHFFRHREQKEKTGEEINFGKLITKPSEGTTLRVEDLVKQYFQTAEKNVQLSLLTERGMGEAVQEFVDKEEKDAIEELVKYQLEKTQRFLKERHIDALEDKIDEEVRRFRETRQKNTNEEDDEVREAMTRARALRSQSEESASAFSADDLMSIDLAEQMANDSDDSISAATNKGRGRGRGRRGGRGQNSASRGGSQRGRADTGLETSTRSRNSKTAVSASRNMSIIDAFKSTRQQPSRNVTTKNYSEVIEVDESDVEEDIFPTTSKTDQRWSSTSSSKIMSQSQVSKGVDFESSEDDDDDPFMNTSSLRRNRR
As to B3, the “antiproliferative activity, cell tracker assay” value in the test on A549 tumor cells [5] was “antiproliferative”.

B4: GFP-MRE11 H217Y mutant: GFP-fused MRE11 H217Y mutant overexpressed in cells (protein, UniProt P49959 2-708, looked up, variant H217Y)
Double-strand break repair …: STADALDDENTFKILVATDIHLGFMEKDAVRGNDTFVTLDEILRLAQENEVDFILLGGDLFHENKPSRKTLHTCLELLRKYCMGDRPVQFEILSDQSVNFGFSKFPWVNYQDGNLNISIPVFSIHGNHDDPTGADALCALDILSCAGFVNHFGRSMSVEKIDISPVLLQKGSTKIALYGLGSIPDERLYRMFVNKKVTMLRPKEDENSWFNLFVIYQNRSKHGSTNFIPEQFLDDFIDLVIWGHEHECKIAPTKNEQQLFYISQPGSSVVTSLSPGEAVKKHVGLLRIKGRKMNMHKIPLHTVRQFFMEDIVLANHPDIFNPDNPKVTQAIQSFCLEKIEEMLENAERERLGNSHQPEKPLVRLRVDYSGGFEPFSVLRFSQKFVDRVANPKDIIHFFRHREQKEKTGEEINFGKLITKPSEGTTLRVEDLVKQYFQTAEKNVQLSLLTERGMGEAVQEFVDKEEKDAIEELVKYQLEKTQRFLKERHIDALEDKIDEEVRRFRETRQKNTNEEDDEVREAMTRARALRSQSEESASAFSADDLMSIDLAEQMANDSDDSISAATNKGRGRGRGRRGGRGQNSASRGGSQRGRADTGLETSTRSRNSKTAVSASRNMSIIDAFKSTRQQPSRNVTTKNYSEVIEVDESDVEEDIFPTTSKTDQRWSSTSSSKIMSQSQVSKGVDFESSEDDDDDPFMNTSSLRRNRR
modifications: GFP fusion
notes: GFP-fused MRE11 H217Y mutant overexpressed in cells
Consider B4, for which the figures for the “sensitivity to bleomycin treatment on overexpression” value in the test on HeLa cells [7], in the test with A549 tumor cells [1] (A549 tumor cells) and in the test with normal HMEC cells were “enhances sensitivity”, “enhances sensitivity” and “does not enhance sensitivity”, respectively.
